First the molecules themselves.
B1: Zinc finger homeobox protein 3, residues 2244 to 2299; numbered along this chain, Q15911 (parent)
chain: SSRTRFTDYQLRVLQDFFDANAYPKDDEFEQLSNLLNLPTRVIVVWFQNARQKARK

± gives the uncertainty stated by the source.

The data set covers variants of B1. Description: abundance fitness (aPCA) (normalised: wild type 0, dead -1); higher = more abundant; growth selection in yeast, the domain comes from the species named. The following applies: Homo sapiens.
Take SSRTRFTDYQLRVLQDFFDAMAYPKDDEFEQLSNLLNLPTRVIVVWFQNARQKARK: the abundance fitness is -0.394 ± 0.13.

Regarding SSRTRFTDYQLRVLQDFFDAGAYPKDDEFEQLSNLLNLPTRVIVVWFQNARQKARK, the abundance fitness was -0.378 ± 0.087.

For the variant SSRTRFTDYQLRVLQDFFDALAYPKDDEFEQLSNLLNLPTRVIVVWFQNARQKARK, the abundance fitness is -0.912 ± 0.12.

As to SSRTRFTDYQLRVLQDFFDATAYPKDDEFEQLSNLLNLPTRVIVVWFQNARQKARK, the abundance fitness came to 0.011 ± 0.13.

Consider SSRTRFTDYQLRVLQDFFDAEAYPKDDEFEQLSNLLNLPTRVIVVWFQNARQKARK, for which the abundance fitness is -0.262 ± 0.12.

On to SSRTRFTDYQLRVLQDFFDADAYPKDDEFEQLSNLLNLPTRVIVVWFQNARQKARK, for which the abundance fitness was -0.306 ± 0.16.

SSRTRFTDYQLRVLQDFFDAVAYPKDDEFEQLSNLLNLPTRVIVVWFQNARQKARK: the abundance fitness is -0.422 ± 0.099.

For SSRTRFTDYQLRVLQDFFDAKAYPKDDEFEQLSNLLNLPTRVIVVWFQNARQKARK, the abundance fitness was determined as 0.166 ± 0.14.

Take SSRTRFTDYQLRVLQDFFDAAAYPKDDEFEQLSNLLNLPTRVIVVWFQNARQKARK: the abundance fitness was -0.428 ± 0.1.

With SSRTRFTDYQLRVLQDFFDACAYPKDDEFEQLSNLLNLPTRVIVVWFQNARQKARK, the abundance fitness is -0.232 ± 0.16.

On to SSRTRFTDYQLRVLQDFFDAPAYPKDDEFEQLSNLLNLPTRVIVVWFQNARQKARK, for which the abundance fitness was -0.74 ± 0.18.

Take SSRTRFTDYQLRVLQDFFDASAYPKDDEFEQLSNLLNLPTRVIVVWFQNARQKARK: the abundance fitness is -0.157 ± 0.099.

In the case of SSRTRFTDYQLRVLQDFFDAWAYPKDDEFEQLSNLLNLPTRVIVVWFQNARQKARK, the abundance fitness is -0.722 ± 0.14.

As for SSRTRFTDYQLRVLQDFFDAQAYPKDDEFEQLSNLLNLPTRVIVVWFQNARQKARK, the abundance fitness was -0.26 ± 0.13.

For SSRTRFTDYQLRVLQDFFDAHAYPKDDEFEQLSNLLNLPTRVIVVWFQNARQKARK, the abundance fitness turned out to be 0.031 ± 0.18.

Take SSRTRFTDYQLRVLQDFFDARAYPKDDEFEQLSNLLNLPTRVIVVWFQNARQKARK: the abundance fitness was -0.237 ± 0.083.

Take SSRTRFTDYQLRVLQDFFDVNAYPKDDEFEQLSNLLNLPTRVIVVWFQNARQKARK: the abundance fitness was -0.249 ± 0.086.

Take SSRTRFTDYQLRVLQDFFDTNAYPKDDEFEQLSNLLNLPTRVIVVWFQNARQKARK: the abundance fitness is -0.044 ± 0.086.

Consider SSRTRFTDYQLRVLQDFFDWNAYPKDDEFEQLSNLLNLPTRVIVVWFQNARQKARK, for which the abundance fitness is -0.36 ± 0.11.

As to SSRTRFTDYQLRVLQDFFDDNAYPKDDEFEQLSNLLNLPTRVIVVWFQNARQKARK, the abundance fitness was -0.102 ± 0.16.

Take SSRTRFTDYQLRVLQDFFDMNAYPKDDEFEQLSNLLNLPTRVIVVWFQNARQKARK: the abundance fitness was -0.268 ± 0.15.

With SSRTRFTDYQLRVLQDFFDFNAYPKDDEFEQLSNLLNLPTRVIVVWFQNARQKARK, the abundance fitness was -0.618 ± 0.33.

As to SSRTRFTDYQLRVLQDFFDGNAYPKDDEFEQLSNLLNLPTRVIVVWFQNARQKARK, the abundance fitness was -0.13 ± 0.081.

Turning to SSRTRFTDYQLRVLQDFFDINAYPKDDEFEQLSNLLNLPTRVIVVWFQNARQKARK, the abundance fitness was -0.405 ± 0.21.

As for SSRTRFTDYQLRVLQDFFDLNAYPKDDEFEQLSNLLNLPTRVIVVWFQNARQKARK, the abundance fitness was -0.188 ± 0.085.

Turning to SSRTRFTDYQLRVLQDFFDSNAYPKDDEFEQLSNLLNLPTRVIVVWFQNARQKARK, the abundance fitness was -0.065 ± 0.12.

Regarding SSRTRFTDYQLRVLQDFFDRNAYPKDDEFEQLSNLLNLPTRVIVVWFQNARQKARK, the abundance fitness amounted to 0.075 ± 0.081.

As to SSRTRFTDYQLRVLQDFFDENAYPKDDEFEQLSNLLNLPTRVIVVWFQNARQKARK, the abundance fitness is -0.115 ± 0.13.

As for SSRTRFTDYQLRVLQDFFDQNAYPKDDEFEQLSNLLNLPTRVIVVWFQNARQKARK, the abundance fitness is -0.111 ± 0.12.

Regarding SSRTRFTDYQLRVLQDFFDYNAYPKDDEFEQLSNLLNLPTRVIVVWFQNARQKARK, the abundance fitness was -0.291 ± 0.23.

Regarding SSRTRFTDYQLRVLQDFFDPNAYPKDDEFEQLSNLLNLPTRVIVVWFQNARQKARK, the abundance fitness is -0.543 ± 0.18.

Consider SSRTRFTDYQLRVLQDFFDNNAYPKDDEFEQLSNLLNLPTRVIVVWFQNARQKARK, for which the abundance fitness came out at 0.24 ± 0.23.

On to SSRTRFTDYQLRVLQDFFDANCYPKDDEFEQLSNLLNLPTRVIVVWFQNARQKARK, for which the abundance fitness is -0.156 ± 0.086.

Consider SSRTRFTDYQLRVLQDFFGANAYPKDDEFEQLSNLLNLPTRVIVVWFQNARQKARK, for which the abundance fitness was -0.414 ± 0.15.

For SSRTRFTDYQLRVLQDFFSANAYPKDDEFEQLSNLLNLPTRVIVVWFQNARQKARK, the abundance fitness is -0.299 ± 0.24.

As to SSRTRFTDYQLRVLQDFFTANAYPKDDEFEQLSNLLNLPTRVIVVWFQNARQKARK, the abundance fitness turned out to be 0.046 ± 0.24.

Regarding SSRTRFTDYQLRVLQDFFPANAYPKDDEFEQLSNLLNLPTRVIVVWFQNARQKARK, the abundance fitness was -0.686 ± 0.5.

Regarding SSRTRFTDYQLRVLQDFFCANAYPKDDEFEQLSNLLNLPTRVIVVWFQNARQKARK, the abundance fitness is -0.036 ± 0.45.

For SSRTRFTDYQLRVLQDFFKANAYPKDDEFEQLSNLLNLPTRVIVVWFQNARQKARK, the abundance fitness is -0.164 ± 0.27.

With SSRTRFTDYQLRVLQDFFEANAYPKDDEFEQLSNLLNLPTRVIVVWFQNARQKARK, the abundance fitness stood at 0.172 ± 0.23.

For the variant SSRTRFTDYQLRVLQDFFAANAYPKDDEFEQLSNLLNLPTRVIVVWFQNARQKARK, the abundance fitness is -0.024 ± 0.22.

Take SSRTRFTDYQLRVLQDFFMANAYPKDDEFEQLSNLLNLPTRVIVVWFQNARQKARK: the abundance fitness was determined as 0.169 ± 0.47.

SSRTRFTDYQLRVLQDFFRANAYPKDDEFEQLSNLLNLPTRVIVVWFQNARQKARK: the abundance fitness is -0.012 ± 0.14.

Consider SSRTRFTDYQLRVLQDFFVANAYPKDDEFEQLSNLLNLPTRVIVVWFQNARQKARK, for which the abundance fitness is -0.141 ± 0.27.

As to SSRTRFTDYQLRVLQDFFQANAYPKDDEFEQLSNLLNLPTRVIVVWFQNARQKARK, the abundance fitness is -0.263 ± 0.23.

Turning to SSRTRFTDYQLRVLQDFFWANAYPKDDEFEQLSNLLNLPTRVIVVWFQNARQKARK, the abundance fitness is -0.329 ± 0.25.

With SSRTRFTDYQLRVLQDEFDANAYPKDDEFEQLSNLLNLPTRVIVVWFQNARQKARK, the abundance fitness is -0.076 ± 0.12.
